Laboratory results from publication PMC5943153 (Molecular microbiology, 2018).
Values joined by “and” are separate entries in the source; they are usually repeats but may differ in a detail not shown here. Equal values may be shown once.

T1: T25-HP1492 (Nfu) (Helicobacter pylori strain 26695, UniProt O26025 2-89)
T1 sequence (looked up): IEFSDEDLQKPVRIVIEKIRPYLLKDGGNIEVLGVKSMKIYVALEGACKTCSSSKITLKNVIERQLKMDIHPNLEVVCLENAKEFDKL

T2: T25-HP0221 (NifU) (Helicobacter pylori strain 26695, UniProt O25009 2-326)
T2 sequence (looked up): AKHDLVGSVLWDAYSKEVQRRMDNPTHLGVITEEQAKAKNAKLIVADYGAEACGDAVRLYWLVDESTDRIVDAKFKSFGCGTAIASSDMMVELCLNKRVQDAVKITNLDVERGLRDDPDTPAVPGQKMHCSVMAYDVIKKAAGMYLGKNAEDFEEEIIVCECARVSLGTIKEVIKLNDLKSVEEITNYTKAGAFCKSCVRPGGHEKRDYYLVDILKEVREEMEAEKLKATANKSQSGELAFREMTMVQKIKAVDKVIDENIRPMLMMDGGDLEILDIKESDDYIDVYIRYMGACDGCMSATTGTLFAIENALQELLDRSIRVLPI

T3: HP0221-T25 (NifU) (Helicobacter pylori strain 26695, UniProt O25009 2-326)
T3 sequence (looked up): T2 sequence (looked up)

B1: T18-HP0207 (natural protein, Helicobacter pylori strain 26695, UniProt O24999 2-368, looked up)
chain: LTQEDVLNALKTIIYPNFEKDIVSFGFVKNITLHDDQLGLLIEIPSSSEETSAILRENISKAMQEKGVKALNLDIKTPPKPQAPKPTTKNLAKNIKHVVMISSGKGGVGKSTTSVNLSIALANLNQKVGLLDADVYGPNIPRMMGLQSADVIMDPSGKKLIPLKAFGVSVMSMGLLYDEGQSLIWRGPMLMRAIEQMLSDIIWGDLDVLVVDMPPGTGDAQLTLAQAVPLSAGITVTTPQIVSLDDAKRSLDMFKKLHIPIAGIVENMGSFVCEHCKKESEIFGSNSMSELLEAYHTQILAKLPLEPKVRLGGDRGEPIVISHPNSVSAKIFEKMAQDLSAFLERVKKEKLADNKDIQPTQTHACSH
B2: T18-HP0220 (natural protein, Helicobacter pylori strain 26695, UniProt O25008 2-387, looked up)
chain: LQRIYLDNNATTRIDPKVKEIMDPFLRDHYGNPSSLHQFGTETHPAIAEALDKLYKGINARDIDDVIITSCATESNNWVLKGVYFDECLKKGKNHIVTTVAEHPAVRSTCNFLESLGVEVTYLPINEHGSITAEQVKEAITEKTALVSVMWANNETGLIFPIEEIGAICKEKGVLFHTDAVQAIGKIPVDVLKANADFLSFSAHKFHGPKGIGGLYIRSGVGLTPLFHGGEHMNGRRSGTLNVPYIVGMGEAMKLAVEHLDYEKEVVGKLRDKLEEALLKIPDVMVVGDRIHRVPNTTLVSVRGIEGEAMLWDLNRSNIAASTGSACASEDLEANPVMVAIGASKELAHTAIRLSLSRFNTEAEIDKTIEVFSQAAVRLRNISSSY
B3: T18-HP0221 (natural protein, Helicobacter pylori strain 26695, UniProt O25009 2-326, looked up)
chain: T2 sequence (looked up)
B4: T18-HP0277 (natural protein, Helicobacter pylori strain 26695, UniProt O25054 2-84, looked up)
chain: SLLVNDECIACDACREECPSEAIEEGDPIYNIDPDRCTECYGYDDDEPRCVSVCPVDAILPDPNNAESKEELKYKYESLKEQD
B5: T18-HP1266 (natural protein, Helicobacter pylori strain 26695, UniProt O25856 2-844, looked up)
chain: ITMNINGKTIECQEGQSVLEAARSAGIYIPTICYLSGCSPTVACKMCMVEMDGKRVYSCNTKAKNNATILTNTPTLMDERKSIMQTYDVNHPLECGVCDKSGECELQDMTHLTGVEHQPYAVADDFKALDFWAKALYDPNLCIMCERCVTTCKDNVGENNLKATKADLHAPDKFKDSMSKDAFSVWSRKQKGIISFVGSVPCYDCGECIAVCPVGALSYKDFAYTANAWELKKIHSTCSHCSAGCLISYDVRHFDTLGEESKIFRVLNDFYHNPICGAGRFAFDVSSSPKGSANLKEAQNALKECEAVRIGGDITNEEAFLIERLRKELDFKIYNQEAYRFQQFLKVLGEIKRPSVEEIKTSHLVVTIGSSIKTENPLVRYAINNALKLNKASLIAMHPIKDNALANLCRSSFCITHEVGAEEILLGMLLKMLNIESAALKSLEDSKQNIVDEAALKALEEERKKALEQAEQGCSIGENKAENQEENKTEATTPKEENQEENKTEVKEEKIEVPTKTTYLLLEEAGINLETYEKILALLQKSNNTLLVVGEEIYSHKQAHNIAKMLRLLAQKSAIKLILIPPSANALGIASICQLSEEIFEHEKIVGIRAQGDFTINSDDRVFGKDAASKVDFILPSLNQLEGTITNIEGRVLPLKPALRFEGYDLSDIMQGFGFVEENLIECTHKLPTEAGFKAIEFDYLTNYFANDRVNHRGYLLGTSHFEKSAKECETIECEPIKPLKEKIAFNAYLKYPETQFNNATNKSENLQLKAGVYVSKAFLKKLNKEVGQNITLSKEEEELTGVLYLDESLDQEVFVISPSLLKNHSGFFREGVFDSVDLKEQA
B6: Nfu (purified recombinant) (natural protein, Helicobacter pylori strain 26695, UniProt O26025 1-89, looked up)
chain: MIEFSDEDLQKPVRIVIEKIRPYLLKDGGNIEVLGVKSMKIYVALEGACKTCSSSKITLKNVIERQLKMDIHPNLEVVCLENAKEFDKL
B7: NifS (purified recombinant) (enzyme, Helicobacter pylori strain 26695, UniProt O25008 1-387, looked up)
chain: MLQRIYLDNNATTRIDPKVKEIMDPFLRDHYGNPSSLHQFGTETHPAIAEALDKLYKGINARDIDDVIITSCATESNNWVLKGVYFDECLKKGKNHIVTTVAEHPAVRSTCNFLESLGVEVTYLPINEHGSITAEQVKEAITEKTALVSVMWANNETGLIFPIEEIGAICKEKGVLFHTDAVQAIGKIPVDVLKANADFLSFSAHKFHGPKGIGGLYIRSGVGLTPLFHGGEHMNGRRSGTLNVPYIVGMGEAMKLAVEHLDYEKEVVGKLRDKLEEALLKIPDVMVVGDRIHRVPNTTLVSVRGIEGEAMLWDLNRSNIAASTGSACASEDLEANPVMVAIGASKELAHTAIRLSLSRFNTEAEIDKTIEVFSQAAVRLRNISSSY
B8: NifU (purified recombinant) (natural protein, Helicobacter pylori strain 26695, UniProt O25009 1-326, looked up)
chain: MAKHDLVGSVLWDAYSKEVQRRMDNPTHLGVITEEQAKAKNAKLIVADYGAEACGDAVRLYWLVDESTDRIVDAKFKSFGCGTAIASSDMMVELCLNKRVQDAVKITNLDVERGLRDDPDTPAVPGQKMHCSVMAYDVIKKAAGMYLGKNAEDFEEEIIVCECARVSLGTIKEVIKLNDLKSVEEITNYTKAGAFCKSCVRPGGHEKRDYYLVDILKEVREEMEAEKLKATANKSQSGELAFREMTMVQKIKAVDKVIDENIRPMLMMDGGDLEILDIKESDDYIDVYIRYMGACDGCMSATTGTLFAIENALQELLDRSIRVLPI

Biological target: T25-HP0220 (NifS) (Helicobacter pylori strain 26695, UniProt O25008 2-387)
Assay: two-hybrid

Binder	growth OD595 in M63-maltose [OD595]
B1	0.23
B2	0.29
B3	0.12
B4	0.3
B5	0.16

Biological target: T1, T25-HP1492 (Nfu)
Assay: two-hybrid

Binder	growth OD595 in M63-maltose [OD595]
B1	0.21
B2	0.22
B3	0.08
B4	0.4
B5	0.24

Biological target: T2, T25-HP0221 (NifU)
Assay: two-hybrid

Binder	growth OD595 in M63-maltose [OD595]
B1	0.14
B2	0.13

Biological target: T3, HP0221-T25 (NifU)
Assay: two-hybrid

Binder	growth OD595 in M63-maltose [OD595]
B1	0.13
B2	0.11

Biological target: the molecule itself
Assay: SEC

Binder	stoichiometry N
B6	4 and 2
B7	2
B8	2
